Data on 67 sequences can be found in the supplement of paper PMC10724198.

In the data set the test system is Saccharomyces cerevisiae. Briefly: protein stability index of tFT-peptide fusion (C-terminal peptide) (PSI (0-1 scale)); higher = more stable (slower turnover). The settings on record: temperature: 30 C. On the procedure: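 MPS profiling in S. cerevisiae of the yeast C-terminome library: the last 12 aa of each annotated ORF are fused to the C-terminus of a sfGFP-mCherry timer, after a GGGS linker. Cells are FACS-sorted into 8 mCherry/sfGFP bins and deep-sequenced. PSI runs from 0 (unstable) to 1 (stable); wild type and das1Δ backgrounds, two technical replicates each.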

Where [1] appears, read: genetic background: das1 deletion.

± gives the standard deviation of the averaged measurements.

As for ESTPKDAARSTN [ASF1 C-terminal 12 aa], the protein stability index under setting [1] is 0.69 ± 0.025 and the protein stability index (genetic background: wild type) amounted to 0.705 ± 0.028.

In the case of ETNNVFQDAILR [DOC1 C-terminal 12 aa], the protein stability index is, setting by setting: under setting [1], 0.698 ± 0.013; (genetic background: wild type) 0.683 ± 0.017.

As to ETPLLYNDTHTP [IES5 C-terminal 12 aa], the protein stability index turned out to be 0.696 ± 0.042 under setting [1] and 0.695 ± 0.009 (genetic background: wild type).

ETYGSKIVYRFS [GAL10 C-terminal 12 aa]: the protein stability index runs as follows: under setting [1], 0.692 ± 0.031; (genetic background: wild type) 0.7035 ± 0.0018.

For EVAKSLTLQYDV [CNB1 C-terminal 12 aa], the protein stability index was determined as 0.699 ± 0.0073 under setting [1] and 0.68 ± 0.015 (genetic background: wild type).

On to EVENDRQIHRML [IDI1 C-terminal 12 aa], for which the protein stability index is 0.6924 ± 0.0013 under setting [1] and 0.682 ± 0.01 (genetic background: wild type).

EWSFASSGYKDD [PPN1 C-terminal 12 aa]: the protein stability index was 0.7115 ± 0.0032 under setting [1] and 0.794 ± 0.041 (genetic background: wild type).

As to FADKIKPTKVAE [MCK1 C-terminal 12 aa], the protein stability index was determined as 0.693 ± 0.015 under setting [1] and 0.691 ± 0.023 (genetic background: wild type).

For the sequence FCAAYQGKKNNK [SLN1 C-terminal 12 aa], the protein stability index is, setting by setting: under setting [1], 0.696 ± 0.022; (genetic background: wild type) 0.659 ± 0.039.

In the case of FDIKKANSATLA [TMA46 C-terminal 12 aa], the protein stability index by setting is: under setting [1], 0.6584 ± 0.0037; (genetic background: wild type) 0.634 ± 0.019.

FELVQPKGRRKH [TSR2 C-terminal 12 aa] displayed a protein stability index under setting [1] of 0.711 ± 0.016 and a protein stability index (genetic background: wild type) of 0.686 ± 0.058.

In the case of FFLRSAAVYQPF [YPR197C C-terminal 12 aa], the protein stability index by setting is: under setting [1], 0.6949 ± 0.003; (genetic background: wild type) 0.6815 ± 0.0047.

In the case of “FFNISVSTKISF [YER175W-A C-terminal 12 aa]”, the protein stability index under setting [1] stood at 0.6797 ± 0.00033 and the protein stability index (genetic background: wild type) is 0.659 ± 0.04.

For FFSRVKSFKDPG [HRT3 C-terminal 12 aa], the protein stability index was determined as 0.7153 ± 0.0048 under setting [1] and 0.688 ± 0.022 (genetic background: wild type).

“FHPLFYCSALVF [YIL142C-A C-terminal 12 aa]”: the protein stability index runs as follows: under setting [1], 0.256 ± 0.016; (genetic background: wild type) 0.277 ± 0.015.

Take FIEMSLASSFAG [MBR1 C-terminal 12 aa]: the protein stability index reads like this: under setting [1], 0.713 ± 0.009; (genetic background: wild type) 0.704 ± 0.028.

In the case of FILELKNICKCT [MOH1 C-terminal 12 aa], the protein stability index is, setting by setting: under setting [1], 0.703 ± 0.026; (genetic background: wild type) 0.525 ± 0.046.

Turning to FINCSSKYNGLQ [YBR224W C-terminal 12 aa], the protein stability index is 0.687 ± 0.0088 under setting [1] and 0.703 ± 0.019 (genetic background: wild type).

FKMCPFFISWFL [YBL073W C-terminal 12 aa]: the protein stability index reads like this: under setting [1], 0.6013 ± 0.0016; (genetic background: wild type) 0.563 ± 0.032.

In the case of FLDKNKKEQSDS [ECM9 C-terminal 12 aa], the protein stability index was 0.678 ± 0.029 under setting [1] and 0.771 ± 0.08 (genetic background: wild type).

As to FLLTASRGIAQF [YBR116C C-terminal 12 aa], the protein stability index runs as follows: under setting [1], 0.6752 ± 0.0048; (genetic background: wild type) 0.74 ± 0.088.

As to FPCAGSAMGSLT [YMR103C C-terminal 12 aa], the protein stability index stood at 0.703 ± 0.011 under setting [1] and 0.684 ± 0.01 (genetic background: wild type).

Regarding FPQLNGLLRLQH [YPR014C C-terminal 12 aa], the protein stability index amounted to 0.698 ± 0.015 under setting [1] and 0.681 ± 0.028 (genetic background: wild type).

Sequence FQPLLKKNQVGY [THI3 C-terminal 12 aa] registered a protein stability index under setting [1] of 0.704 ± 0.028 and a protein stability index (genetic background: wild type) of 0.693 ± 0.012.

Regarding FSLLSFISYFLL [YPS6 C-terminal 12 aa], the protein stability index was 0.665 ± 0.053 under setting [1] and 0.379 ± 0.011 (genetic background: wild type).

As for FSMLANRITIGL [YJL175W C-terminal 12 aa], the protein stability index reads like this: under setting [1], 0.657 ± 0.016; (genetic background: wild type) 0.64 ± 0.014.

As to FSSFKFLDTSYL [CKI1 C-terminal 12 aa], the protein stability index under setting [1] amounted to 0.748 ± 0.0096 and the protein stability index (genetic background: wild type) stood at 0.697 ± 0.048.

Turning to “FTPSYIPEPVLL [YOR161W-B C-terminal 12 aa]”, the protein stability index came out at 0.671 ± 0.012 under setting [1] and 0.654 ± 0.013 (genetic background: wild type).

For the sequence FVAEAYLDEFVY [ARC19 C-terminal 12 aa], the protein stability index by setting is: under setting [1], 0.71 ± 0.03; (genetic background: wild type) 0.662 ± 0.02.

In turn, FVKTIADTLSFS [PRR1 C-terminal 12 aa] came in with a protein stability index under setting [1] of 0.6997 ± 0.0036 and a protein stability index (genetic background: wild type) of 0.7061 ± 0.0011.

On to FVLPTWAAKELN [SPE3 C-terminal 12 aa], for which the protein stability index reads like this: under setting [1], 0.7195 ± 0.0063; (genetic background: wild type) 0.69 ± 0.03.

FYVCYQLYHLVF [DPM1 C-terminal 12 aa]: the protein stability index stood at 0.355 ± 0.012 under setting [1] and 0.347 ± 0.022 (genetic background: wild type).

As to GALREVIKLQKQ [SLX9 C-terminal 12 aa], the protein stability index under setting [1] was 0.704 ± 0.035 and the protein stability index (genetic background: wild type) stood at 0.656 ± 0.0067.

For the sequence GALVGYTIGAYI [GPI11 C-terminal 12 aa], the protein stability index amounted to 0.666 ± 0.015 under setting [1] and 0.673 ± 0.055 (genetic background: wild type).

Consider GAPANKRPRRGL [SMD1 C-terminal 12 aa], for which the protein stability index runs as follows: under setting [1], 0.737 ± 0.026; (genetic background: wild type) 0.7365 ± 0.0044.

For the sequence GDPIDLKEKKLN [RER2 C-terminal 12 aa], the protein stability index worked out at 0.705 ± 0.031 under setting [1] and 0.196 ± 0.032 (genetic background: wild type).

Take GDTLYEEFGISK [ARO8 C-terminal 12 aa]: the protein stability index reads like this: under setting [1], 0.709 ± 0.0035; (genetic background: wild type) 0.712 ± 0.046.

Regarding GESSINSSTRHA [CTK2 C-terminal 12 aa], the protein stability index is, setting by setting: under setting [1], 0.683 ± 0.015; (genetic background: wild type) 0.6853 ± 0.0058.

Turning to GEYLRDEDTLFT [NIP7 C-terminal 12 aa], the protein stability index amounted to 0.727 ± 0.011 under setting [1] and 0.725 ± 0.013 (genetic background: wild type).

The sequence “GFRPAGATRFYS [YHR086W-A C-terminal 12 aa]” came in with a protein stability index under setting [1] of 0.6965 ± 0.0029 and a protein stability index (genetic background: wild type) of 0.691 ± 0.016.

For GGFFKKLAQLLK [MDG1 C-terminal 12 aa], the protein stability index is 0.704 ± 0.015 under setting [1] and 0.719 ± 0.07 (genetic background: wild type).

Regarding GGLHFHGESFAL [FRE8 C-terminal 12 aa], the protein stability index came out at 0.699 ± 0.0096 under setting [1] and 0.712 ± 0.036 (genetic background: wild type).

Take GIGFTNTSKKIA [RCL1 C-terminal 12 aa]: the protein stability index runs as follows: under setting [1], 0.708 ± 0.027; (genetic background: wild type) 0.5373 ± 0.0012.

In the case of GINLNISYSSGK [ULI1 C-terminal 12 aa], the protein stability index is 0.706 ± 0.012 under setting [1] and 0.681 ± 0.0044 (genetic background: wild type).

Sequence GIPNFKLKVTQI [GAB1 C-terminal 12 aa] registered a protein stability index under setting [1] of 0.6896 ± 0.0036 and a protein stability index (genetic background: wild type) of 0.706 ± 0.041.

In the case of GKDRPSRFNSKK [TEX1 C-terminal 12 aa], the protein stability index by setting is: under setting [1], 0.693 ± 0.011; (genetic background: wild type) 0.667 ± 0.038.

In the case of GKEVRKLRPENQ [ILV5 C-terminal 12 aa], the protein stability index is 0.691 ± 0.014 under setting [1] and 0.654 ± 0.024 (genetic background: wild type).

On to GKGKKKMVVLEW [ETR1 C-terminal 12 aa], for which the protein stability index runs as follows: under setting [1], 0.692 ± 0.026; (genetic background: wild type) 0.712 ± 0.018.

As to GKRRMNPGPSVQ [RPS30A C-terminal 12 aa], the protein stability index is, setting by setting: under setting [1], 0.696 ± 0.0085; (genetic background: wild type) 0.6758 ± 0.0052.

On to GKSHPFHSSDRY [YJL211C C-terminal 12 aa], for which the protein stability index by setting is: under setting [1], 0.6884 ± 0.0033; (genetic background: wild type) 0.699 ± 0.023.

Turning to GLGDFGDRYYCV [FUR1 C-terminal 12 aa], the protein stability index was 0.7105 ± 0.0059 under setting [1] and 0.697 ± 0.007 (genetic background: wild type).

Consider “GLLRKGLVKRDI [YHR193C-A C-terminal 12 aa]”, for which the protein stability index was 0.6883 ± 0.0029 under setting [1] and 0.677 ± 0.033 (genetic background: wild type).

As to GLVGQHQGGGSM [RTC5 C-terminal 12 aa], the protein stability index worked out at 0.68 ± 0.0094 under setting [1] and 0.6633 ± 0.0038 (genetic background: wild type).

Take GNISLLYSQGRL [RSC6 C-terminal 12 aa]: the protein stability index stood at 0.723 ± 0.013 under setting [1] and 0.714 ± 0.053 (genetic background: wild type).

GNLSLDWLNLNL [GAT1 C-terminal 12 aa]: the protein stability index turned out to be 0.735 ± 0.01 under setting [1] and 0.7689 ± 0.0048 (genetic background: wild type).

On to GNNKKKRSVKRE [PBN1 C-terminal 12 aa], for which the protein stability index by setting is: under setting [1], 0.688 ± 0.013; (genetic background: wild type) 0.717 ± 0.036.

Take GPEPPRYDEISS [CSR2 C-terminal 12 aa]: the protein stability index stood at 0.705 ± 0.058 under setting [1] and 0.635 ± 0.025 (genetic background: wild type).

GPSIIMTLYLTL [ARE1 C-terminal 12 aa]: the protein stability index runs as follows: under setting [1], 0.496 ± 0.021; (genetic background: wild type) 0.5045 ± 0.0024.

As for GTFPRNERYYHK [PHA2 C-terminal 12 aa], the protein stability index was found to be 0.71 ± 0.0099 under setting [1] and 0.78 ± 0.021 (genetic background: wild type).

As to GTLVLGTYLLAQ [SHH3 C-terminal 12 aa], the protein stability index amounted to 0.612 ± 0.027 under setting [1] and 0.639 ± 0.037 (genetic background: wild type).

Turning to GVGRIITQPQRY [HUA1 C-terminal 12 aa], the protein stability index is, setting by setting: under setting [1], 0.7038 ± 0.0018; (genetic background: wild type) 0.701 ± 0.043.

As for GWYVGRYYRITR [IMD1 C-terminal 12 aa], the protein stability index runs as follows: under setting [1], 0.714 ± 0.017; (genetic background: wild type) 0.6944 ± 0.0055.

In the case of GYETAIHYLRMY [TPC1 C-terminal 12 aa], the protein stability index under setting [1] turned out to be 0.701 ± 0.013 and the protein stability index (genetic background: wild type) amounted to 0.3927 ± 0.0037.

In the case of HAYVIEKLPDVF [FCF1 C-terminal 12 aa], the protein stability index by setting is: under setting [1], 0.719 ± 0.0048; (genetic background: wild type) 0.698 ± 0.016.

As for “HCLSLCTIQKMI [YOR231C-A C-terminal 12 aa]”, the protein stability index by setting is: under setting [1], 0.7075 ± 0.0048; (genetic background: wild type) 0.159 ± 0.01.

Regarding HELESINSGGAW [YMR31 C-terminal 12 aa], the protein stability index stood at 0.702 ± 0.0072 under setting [1] and 0.689 ± 0.0016 (genetic background: wild type).

For the sequence HIDIPDFSKWDV [SUL1 C-terminal 12 aa], the protein stability index runs as follows: under setting [1], 0.7412 ± 0.0047; (genetic background: wild type) 0.718 ± 0.016.
